Measurements published in US20060093617A1.
Like-named read-outs stand apart in the source and are kept apart here.

Key:
[1] = target: HLA-B0702 (human); experiment: competition vs 125I-labelled probe peptide, purified soluble HLA
[2] = target: HLA-B*0702 (human); experiment: competition with 125I-labeled probe peptide, purified HLA
[3] = target: HLA-A0101 (human); experiment: competition with 125I-labelled probe peptide, purified HLA
[4] = target: HLA-A0301 (human); experiment: competition vs 125I-labelled probe peptide, purified soluble HLA
[5] = target: HLA-DRB1*0101 (human); experiment: competition with 125I-labelled probe peptide on purified HLA-DR; details: remark: other sources report otherwise
[6] = target: HLA-A*0101 (human); experiment: competition with 125I-labelled probe peptide on purified HLA-A*0101
[7] = target: HLA-Cw0602 (human)
[8] = target: HLA-B0801 (human); experiment: competition with 125I-labelled probe peptide, purified HLA
[9] = target: HLA-B0702 (human); details: remark: other sources report otherwise
[10] = target: HLA-B0702 (human); experiment: competition vs 125I probe peptide, purified HLA; details: remark: other sources report otherwise
[11] = target: HLA-B0702 (human); experiment: competition with 125I-labelled probe peptide on purified soluble HLA; details: remark: other sources report otherwise
[12] = target: HLA-B0801 (human); experiment: competition vs 125I probe peptide, purified HLA; details: remark: other sources report otherwise

B1: … (peptide)
peptide: AAKLSALGL
modifications: not checked
- Ki [1]: 277 nM
- IC50 [2]: 277 nM

B2: … (peptide)
peptide: LHGPTPLLY
modifications: not checked
- Ki [3]: 20000 nM

B3: … (peptide)
peptide: YLFNWAVRTK
modifications: not checked
- Ki [4]: < 1000 nM

B4: … (peptide)
peptide: SYTWTGALITPCAAE
modifications: not checked
- IC50 [5]: 5.63 nM

B5: … (peptide)
peptide: FTDNSSPPA
modifications: not checked
- IC50 [6]: 10 nM
- Ki [3]: 10 nM

B6: … (peptide)
peptide: ARALAHGVRV
modifications: not checked
- Ki [7]: 9880 nM

B7: … (peptide)
peptide: YLKGSSGGPL
modifications: not checked
- Ki [8]: 10 nM

B8: … (peptide)
peptide: QPRGRRQPI
modifications: not checked
- Ki [9]: < 1000 nM
- Ki [10]: 1 nM
- Ki [11]: 1 nM
- Ki ([8]; remark: other sources report otherwise): 3 nM

B9: … (peptide)
peptide: EARQAIRSL
modifications: not checked
- Ki [12]: 9 nM
